Data on two molecules can be found in paper PMC9135769, “A topological refactoring design strategy yields highly stable granulopoietic proteins” (Nature Communications, 2022).

The target of test [1] is G-CSFR (Homo sapiens) (UniProt Q99062). Briefly: SPR. Conditions: cited from earlier work.
The target is the same in test [2]. Briefly: ITC. The settings on record: cited from earlier work.
The next test deals with T1, G-CSF Receptor (G-CSFR) (human, UniProt Q99062 25-333).
T1 construct: G-CSF receptor (G-CSFR), human, bought recombinant protein; In the functional rows the receptor is the one on the cells of the test (murine NFS-60 or human CD34+ HSPCs); also called human G-CSFR; human G-CSF receptor; source: bought: R&D systems 381-GR-050/CF
T1 sequence: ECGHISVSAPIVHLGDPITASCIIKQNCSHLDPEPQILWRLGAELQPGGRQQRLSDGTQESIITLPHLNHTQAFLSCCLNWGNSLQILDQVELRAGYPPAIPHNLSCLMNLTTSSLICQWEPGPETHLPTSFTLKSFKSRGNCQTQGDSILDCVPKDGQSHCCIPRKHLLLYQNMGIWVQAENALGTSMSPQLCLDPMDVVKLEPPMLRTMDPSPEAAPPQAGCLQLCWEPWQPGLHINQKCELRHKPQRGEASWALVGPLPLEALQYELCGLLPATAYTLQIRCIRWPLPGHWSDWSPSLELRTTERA
Briefly: SPR; G-CSFR amine-coupled on a CM5 chip (Biacore X100), analytes flowed over, multi-cycle kinetics, 25 °C, 10 mM HEPES pH 7.4, 150 mM NaCl, 3.4 mM EDTA, 0.005% Tween-20; 1:1 model, linear fit of kobs against concentration; legend speaks of apparent affinity for the bivalent ligands. Conditions: both partners purified.

In the case of G-CSF (from UniProt P09919), the values for the Kd with G-CSFR (Homo sapiens) [1] and with G-CSFR (Homo sapiens) [2] were 0.2 nM and 1.4 nM, respectively.

B1: Recombinant human G-CSF (rhG-CSF), USP RS Filgrastim (ligand, UniProt P09919-2 31-204, looked up)
chain: TPLGPASSLPQSFLLKCLEQVRKIQGDGAALQEKLCATYKLCHPEELVLLGHSLGIPWAPLSSCPSQALQLAGCLSQLHSGLFLYQGLLQALEGISPELGPTLDTLQLDVADFATTIWQQMEELGMAPALQPTQGAMPAFASAFQRRAGGVLVASHLQSFLEVSYRVLRHLAQP
notes: granulocyte-colony stimulating factor (G-CSF), human, recombinant; printed length 174 amino acids; also called granulocyte-colony stimulating factor; wild-type G-CSF; source: bought: USP RS Filgrastim, Sigma-Aldrich 1270435
Broadly, the koff is the rate constant with which the complex falls apart. Usually kon stands for the second-order rate constant of association. Consider B1, for which, in the test with G-CSF Receptor (G-CSFR), the Kd is 1.1 nM, the koff stood at 0.00049 s⁻¹ and the kon was 300000 M⁻¹ s⁻¹.
